Reference: patent publication US20220380463A1

Biological target: cynomolgus CD3εδ Fc heterodimer (Cy CD3ε Fc / CD3δ Fc-HIS) (cynomolgus) (UniProt Q95LI8)
Assay: BLI (ForteBio), pH 6.0

Sequence of cynomolgus CD3εδ Fc heterodimer (Cy CD3ε Fc / CD3δ Fc-HIS) (cynomolgus) (chain, as listed by the source mutant, chain 1 of 2): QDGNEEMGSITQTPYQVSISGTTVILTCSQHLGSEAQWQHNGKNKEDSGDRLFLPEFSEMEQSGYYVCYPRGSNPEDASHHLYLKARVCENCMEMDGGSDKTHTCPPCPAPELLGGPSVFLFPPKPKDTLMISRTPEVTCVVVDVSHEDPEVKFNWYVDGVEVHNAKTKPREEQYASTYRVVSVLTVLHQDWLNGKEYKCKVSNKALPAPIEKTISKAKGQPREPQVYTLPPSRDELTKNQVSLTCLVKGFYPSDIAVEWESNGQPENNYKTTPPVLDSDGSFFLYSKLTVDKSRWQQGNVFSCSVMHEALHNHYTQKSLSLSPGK
Sequence of cynomolgus CD3εδ Fc heterodimer (Cy CD3ε Fc / CD3δ Fc-HIS) (cynomolgus) (Q95LI8 22-100, stated change not applied, chain 2 of 2): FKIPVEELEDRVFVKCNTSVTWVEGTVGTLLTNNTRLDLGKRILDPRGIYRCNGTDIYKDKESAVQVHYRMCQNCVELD

B1: SAD10320_P04_E12 (antibody, V domains shown)
VH: QVQLVQSGAEVKKPGASVKVSCKASGFNIKDYYMHWVRQAPGQRLEWMGWIDLENANTIYDAKFQGRVTITRDTSASTAYMELSSLRSEDTAVYYCARDAYGHTFYDVWGQGTLVTVSS
VL: DIVMTQSPDSLAVSLGERATINCKSSQSLLNARTGKNYLAWYQQKPGQPPKLLIYWASTRESGVPDRFSGSGSGTDFTLTISSLQAEDVAVYYCKQSYHVRTFGGGTKVEIK
B1 showed a Kd of 79.8 nM and a kon of 136000 M⁻¹ s⁻¹.
